Assay results reported in the supplement of paper PMC11780869.

Tested on: Bacillus subtilis
Test: cleaved RNA product abundance (RNA/gDNA barcode ratio) relative to median wild-type variant (ratio to wild type); higher = more accumulation of the downstream cleavage product
Conditions: cleavage site: cggR-gapA (positions -7 to +36 mutated)
How it was run: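 Cleaved product abundance for each construct is its RNA-to-gDNA barcode ratio, scaled to the median construct carrying the unmutated site. Cleaved RNA was isolated on a gel, reverse transcribed and barcode-sequenced, with genomic DNA barcodes sequenced alongside and UMIs collapsed. The reporters were truncated aprE or tetM mRNAs with barcoded, mutagenized RNase Y cleavage-site windows integrated into the B. subtilis chromosome, and cultures grew in LB at 37°C from OD600 0.0003 to 0.3.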

[1] = experiment (reporter, strain, medium): exp 2b: truncated aprE reporter, strain BJT200
[2] = experiment (reporter, strain, medium): exp 4a: truncated aprE reporter, strain BJT201 with 2% xylose (RNase J1 expressed)

Row | Sequence | cleaved RNA product abundance [1] | cleaved RNA product abundance [2] | cleaved RNA product abundance (experiment (reporter, strain, medium): exp 6: tetM reporter, strain 168)
1 | ACAGACGAAGGAGCCGCAATGAAGTTATTAAGCGATGAATAATCCCTCAATATAAATATCTCTCACTTATTTAAA | 0.0928 | 0.108 | 
2 | ACAGACGAAGGAGCCGCAATGAAGTTATTAAGGAATGAATAATCCCTCAATATAAATATCTCTCACTTATTTAAA | 0.131 | 0.102 | 
3 | ACAGACGAAGGAGCCGCAATGAAGTTATTAAGGGAAGAATAATCCCTCAATATAAATATCTCTCACTTATTTAAA | 0.389 | 0.702 | 
4 | ACAGACGAAGGAGCCGCAATGAAGTTATTAAGGGATAAATAATCCCTCAATATAAATATCTCTCACTTATTTAAA |  | 0.659 | 
5 | ACAGACGAAGGAGCCGCAATGAAGTTATTAAGGGATGAAAAATCCCTCAATATAAATATCTCTCACTTATTTAAA |  | 0.548 | 
6 | ACAGACGAAGGAGCCGCAATGAAGTTATTAAGGGATGAATAAACCCTCAATATAAATATCTCTCACTTATTTAAA | 0.647 | 0.454 | 
7 | ACAGACGAAGGAGCCGCAATGAAGTTATTAAGGGATGAATAATACCTCAATATAAATATCTCTCACTTATTTAAA |  | 0.138 | 
8 | ACAGACGAAGGAGCCGCAATGAAGTTATTAAGGGATGAATAATCACTCAATATAAATATCTCTCACTTATTTAAA | 0.126 | 0.129 | 
9 | ACAGACGAAGGAGCCGCAATGAAGTTATTAAGGGATGAATAATCCATCAATATAAATATCTCTCACTTATTTAAA |  | 0.251 | 
10 | ACAGACGAAGGAGCCGCAATGAAGTTATTAAGGGATGAATAATCCCACAATATAAATATCTCTCACTTATTTAAA |  | 0.367 | 
11 | ACAGACGAAGGAGCCGCAATGAAGTTATTAAGGGATGAATAATCCCTAAATATAAATATCTCTCACTTATTTAAA |  | 0.792 | 
12 | ACAGACGAAGGAGCCGCAATGAAGTTATTAAGGGATGAATAATCCCTCAAAATAAATATCTCTCACTTATTTAAA |  | 0.355 | 
13 | ACAGACGAAGGAGCCGCAATGAAGTTATTAAGGGATGAATAATCCCTCAATATAAAAATCTCTCACTTATTTAAA | 0.872 | 1.03 | 
14 | ACAGACGAAGGAGCCGCAATGAAGTTATTAAGGGATGAATAATCCCTCAATATAAATATCTCTCACTTATTTAAA | 1.1 | 1.12 | 0.968
15 | ACAGACGAAGGAGCCGCAATGAAGTTATTAAGGGATGAATAATCCCTCAATATGAATATCTCTCACTTATTTAAA |  | 0.141 | 
16 | ACAGACGAAGGAGCCGCAATGAAGTTATTAAGGGATGAATAATCCCTCAATATTAATATCTCTCACTTATTTAAA | 0.226 |  | 
17 | ACAGACGAAGGAGCCGCAATGAAGTTATTAAGGGATGAATAATCCCTCTATATAAATATCTCTCACTTATTTAAA |  | 0.689 | 
18 | ACAGACGAAGGAGCCGCAATGAAGTTATTAAGGGATGAATAATCCCTGAATATAAATATCTCTCACTTATTTAAA |  | 0.713 | 
19 | ACAGACGAAGGAGCCGCAATGAAGTTATTAAGGGATGAATAATCCTTCAATATAAATATCTCTCACTTATTTAAA |  | 0.581 | 
20 | ACAGACGAAGGAGCCGCAATGAAGTTATTAAGGGATGAATAATCGCTCAATATAAATATCTCTCACTTATTTAAA |  | 0.0881 | 

Row | Sequence | cleaved RNA product abundance [1] | cleaved RNA product abundance [2] | cleaved RNA product abundance (experiment (reporter, strain, medium): exp 6: tetM reporter, strain 168)
21 | ACAGACGAAGGAGCCGCAATGAAGTTATTAAGGGATGAATAATCTCTCAATATAAATATCTCTCACTTATTTAAA | 0.942 | 0.845 | 
22 | ACAGACGAAGGAGCCGCAATGAAGTTATTAAGGGATGAATAATGCCTCAATATAAATATCTCTCACTTATTTAAA | 0.122 |  | 
23 | ACAGACGAAGGAGCCGCAATGAAGTTATTAAGGGATGAATAATTCCTCAATATAAATATCTCTCACTTATTTAAA | 0.505 | 0.517 | 
24 | ACAGACGAAGGAGCCGCAATGAAGTTATTAAGGGATGAATACTCCCTCAATATAAATATCTCTCACTTATTTAAA | 0.379 |  | 
25 | ACAGACGAAGGAGCCGCAATGAAGTTATTAAGGGATGAATATTCCCTCAATATAAATATCTCTCACTTATTTAAA | 0.573 | 0.519 | 
26 | ACAGACGAAGGAGCCGCAATGAAGTTATTAAGGGATGAATGATCCCTCAATATAAATATCTCTCACTTATTTAAA |  | 0.506 | 
27 | ACAGACGAAGGAGCCGCAATGAAGTTATTAAGGGATGTATAATCCCTCAATATAAATATCTCTCACTTATTTAAA |  | 1.53 | 
28 | ACAGACGAAGGAGCCGCAATGAAGTTATTAAGGGATGTATAATCCCTCAATTTAAATATCTCTCACTTATTTAAA |  | 0.25 | 
29 | ACAGACGAAGGAGCCGCAATGAAGTTATTAAGGGATTAATAATCCCTCAATATAAATATCTCTCACTTATTTAAA | 0.989 | 1.06 | 
30 | ACAGACGAAGGAGCCGCAATGAAGTTATTAAGGGCTGAATAATCCCTCAATATAAATATCTCTCACTTATTTAAA | 0.583 | 0.472 | 
31 | ACAGACGAAGGAGCCGCAATGAAGTTATTAAGGGTTGAATAATCCCTCAATATAAATATCTCTCACTTATTTAAA | 0.325 |  | 
32 | ACAGACGAAGGAGCCGCAATGAAGTTATTAAGGTATGAATAATCCCTCAATATAAATATCTCTCACTTATTTAAA | 0.109 | 0.146 | 
33 | ACAGACGAAGGAGCCGCAATGAAGTTATTAAGTGATGAATAATCCCTCAATATAAATATCTCTCACTTATTTAAA | 0.0987 |  | 
34 | ACAGACGAAGGAGCCGCAATGAAGTTATTAAGTGATGAATAATCCGTCAATATAAATATCTCTCACTTATTTAAA |  | 0.0953 | 
35 | ACAGACGAAGGAGCCGCAATGAAGTTATTAATGGATGAATAATCCCTCAATATAAATATCTCTCACTTATTTAAA | 0.126 | 0.202 | 
36 | ACAGACGAAGGAGCCGCAATGAAGTTATTATGGGATGAATAATCCCTCAATATAAATATCTCTCACTTATTTAAA |  | 0.464 | 
37 | ACAGACGAAGGAGCCGCAATGAAGTTATTTAGGGATGAATAATCCCTCAATATAAATATCTCTCACTTATTTAAA |  | 0.738 | 
38 | ACAGACGAAGGAGCCGCAATGAAGTTTTTAAGGGATGAATAATCCCTCAATATAAATATCTCTCACTTATTTAAA |  | 0.578 | 
39 | ACAGACGAAGGAGCCGCAATGAATTTATTAAGGGATGAATAATCCCTCAATATAAATATCTCTCACTTATTTAAA |  | 0.786 | 
40 | ACAGACGAAGGAGCCGCAATGTAGTTATTAAGGGATGAATAATCCCTCAATATAAATATCTCTCACTTATTTAAA |  | 1.43 | 

Row | Sequence | cleaved RNA product abundance [1] | cleaved RNA product abundance [2] | cleaved RNA product abundance (experiment (reporter, strain, medium): exp 6: tetM reporter, strain 168)
41 | ACAGACGAAGGAGCCGCAATTAAGTTATTAAGGGATGAATAATCCCTCAATATAAATATCTCTCACTTATTTAAA | 0.955 | 0.863 | 
42 | ACAGACGAAGGAGCCGCACACAAGTTATTAAGGGATGAATAATCCCTCAATATAAATATCTCTCACTTATTTAAA |  | 0.483 | 
43 | ACAGACGAAGGAGCCGCACAGAACTTATTAAGGGATGAATAATCCCTCAATATAAATATCTCTCACTTATTTAAA |  | 0.558 | 
44 | ACAGACGAAGGAGCCGCACAGAAGATATTAAGGGATGAATAATCCCTCAATATAAATATCTCTCACTTATTTAAA |  | 0.364 | 
45 | ACAGACGAAGGAGCCGCACAGAAGTAATTAAGGGATGAATAATCCCTCAATATAAATATCTCTCACTTATTTAAA |  | 0.391 | 
46 | ACAGACGAAGGAGCCGCACAGAAGTCATTAAGGGATGAATAATCCCTCAATATAAATATCTCTCACTTATTTAAA |  | 0.43 | 
47 | ACAGACGAAGGAGCCGCACAGAAGTGATTAAGGGATGAATAATCCCTCAATATAAATATCTCTCACTTATTTAAA | 0.259 | 0.311 | 
48 | ACAGACGAAGGAGCCGCACAGAAGTTAATAAGGGATGAATAATCCCTCAATATAAATATCTCTCACTTATTTAAA |  | 0.309 | 
49 | ACAGACGAAGGAGCCGCACAGAAGTTACTAAGGGATGAATAATCCCTCAATATAAATATCTCTCACTTATTTAAA |  | 0.22 | 
50 | ACAGACGAAGGAGCCGCACAGAAGTTATAAAGGGATGAATAATCCCTCAATATAAATATCTCTCACTTATTTAAA |  | 0.414 | 
51 | ACAGACGAAGGAGCCGCACAGAAGTTATCAAGGGATGAATAATCCCTCAATATAAATATCTCTCACTTATTTAAA |  | 0.365 | 
52 | ACAGACGAAGGAGCCGCACAGAAGTTATTAAAGGATGAATAATCCCTCAATATAAATATCTCTCACTTATTTAAA | 0.173 | 0.177 | 
53 | ACAGACGAAGGAGCCGCACAGAAGTTATTAACGGATGAATAATCCCTCAATATAAATATCTCTCACTTATTTAAA | 0.121 | 0.197 | 
54 | ACAGACGAAGGAGCCGCACAGAAGTTATTAAGAGATGAATAATCCCTCAATATAAATATCTCTCACTTATTTAAA | 0.134 | 0.215 | 
55 | ACAGACGAAGGAGCCGCACAGAAGTTATTAAGAGATGAATAATCCCTCAATATAAATTTCTCTCACTTATTTAAA |  | 0.113 | 
56 | ACAGACGAAGGAGCCGCACAGAAGTTATTAAGGAATGAATAATCCCTCAATATAAATATCTCTCACTTATTTAAA |  | 0.143 | 
57 | ACAGACGAAGGAGCCGCACAGAAGTTATTAAGGGAAGAATAATCCCTCAATATAAATATCTCTCACTTATTTAAA | 0.452 | 0.573 | 
58 | ACAGACGAAGGAGCCGCACAGAAGTTATTAAGGGATGAACAATCCCTCAATATAAATATCTCTCACTTATTTAAA |  | 0.614 | 
59 | ACAGACGAAGGAGCCGCACAGAAGTTATTAAGGGATGAATAAACCCTCAATATAAATATCTCTCACTTATTTAAA | 0.294 | 0.34 | 
60 | ACAGACGAAGGAGCCGCACAGAAGTTATTAAGGGATGAATAATACCTCAATATAAATATCTCTCACTTATTTAAA | 0.118 |  | 
